Reference: PMC7498260, “The peroxisome counteracts oxidative stresses by suppressing catalase import via Pex14 phosphorylation” (eLife, 2020)

Target: Pex5L (Chinese hamster, ClPex5L) (Chinese hamster, UniProt Q920N5 1-640)
Assay: pull-down; GST-Pex14 variants (2 μg) on glutathione-Sepharose beads incubated with Pex5L (2 μg) together with EGFP-PTS1 (4 μg) or HA-catalase (4 μg), 2 hr at 4°C, 50 mM Tris-HCl pH 7.5, 0.15 M NaCl, 1% Triton X-100, 10% glycerol; bound fraction by immunoblot, quantified and normalised by GST-Pex14
Conditions: both partners purified

binding result: binds
B1: HA-catalase (human) (enzyme)
chain: MADSRDPASDQMQHWKEQRAAQKADVLTTGAGNPVGDKLNVITVGPRGPLLVQDVVFTDEMAHFDRERIPERVVHAKGAGAFGYFEVTHDITKYSKAKVFEHIGKKTPIAVRFSTVAGESGSADTVRDPRGFAVKFYTEDGNWDLVGNNTPIFFIRDPILFPSFIHSQKRNPQTHLKDPDMVWDFWSLRPESLHQVSFLFSDRGIPDGHRHMNGYGSHTFKLVNANGEAVYCKFHYKTDQGIKNLSVEDAARLSQEDPDYGIRDLFNAIATGKYPSWTFYIQVMTFNQAETFPFNPFDLTKVWPHKDYPLIPVGKLVLNRNPVNYFAEVEQIAFDPSNMPPGIEASPDKMLQGRLFAYPDTHRHRLGPNYLHIPVNCPYRARVANYQRDGPMCMQDNQGGAPNYYPNSFGAPEQQPSALEHSIQYSGEVRRFNTANDDNVTQVRAFYVNVLNEEQRKRLCENIAGHLKDAQIFIQKKAVKNFTEVHPDYGSHIQALLDKYNAEKPKNAIHTFVQSGSHLAAREKANL
notes: catalase, human (HsCatalase); HA-Catalase amplified from pUcD3/HA-HsCatalase (Otera and Fujiki, 2012) and cloned into pGEX6P-1; The forward primer GST-HA-HsCatalase.BglFw starts with ATG GCT TAT CCA TAC GAC, i.e. the HA tag lies at the N-terminus of catalase; also called HA-HsCatalase; source: E. coli DH5α, GST fusion purified with glutathione-Sepharose beads, isolated by cleaving …
